Reference: publication PMC6382783

How the values were obtained:
[1] = biological target: ThiS-YbeA-ssrA (Archaeoglobus fulgidus | Escherichia coli | not stated); experiment: SEC; analytical SEC on an S200 10/300 GL column, 0.5-1 mL/min, molecular mass from Kav against a calibration curve of low molecular weight standards
[2] = biological target: ClpXP (ClpXΔN6 with ClpP14) (Escherichia coli | E. coli) (UniProt P0A6H1)
[3] = biological target: YbeA-ssrA (Escherichia coli | not stated); experiment: SEC; analytical SEC on an S200 10/300 GL column, 0.5-1 mL/min, molecular mass from Kav against a calibration curve of low molecular weight standards

## ThiS-YbeA-ssrA
[1]
  stoichiometry N: 2

## UCH-L1-ssrA (enzyme)
[2]
  degradation of PR65/A-ssrA by ClpXP in competition with equimolar UCH-L1-ssrA (5 µM each), SDS-PAGE and densitometry: 2 fold

## YbeA-ssrA (enzyme)
[3]
  stoichiometry N: 2
